Reference: article PMC10397247
Read-outs that look alike come from different tables or passages of the source.

What was measured:
4H380-AA = target: T1, 4H380-AA; assay: two-hybrid library CCmax; details: mean of both orientations;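 also: natural log of median RNA to DNA barcode read ratio; higher means stronger binding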
T1 chain: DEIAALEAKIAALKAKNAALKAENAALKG

4H3129-AA = target: T2, 4H3129-AA; assay: two-hybrid library CCmax;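 also: natural log of median RNA to DNA barcode read ratio; higher means stronger binding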
T2 chain: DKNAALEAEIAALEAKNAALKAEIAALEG

4H3782-AA = target: T3, 4H3782-AA; assay: two-hybrid library CCmax; details: mean of both orientations;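 also: natural log of median RNA to DNA barcode read ratio; higher means stronger binding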
T3 chain: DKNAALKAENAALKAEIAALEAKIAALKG

4H3777-AA = target: T4, 4H3777-AA; assay: two-hybrid library CCmax; details: mean of both orientations;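 also: natural log of median RNA to DNA barcode read ratio; higher means stronger binding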
T4 chain: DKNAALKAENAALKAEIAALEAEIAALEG

4H324-AA = target: T5, 4H324-AA; assay: two-hybrid library CCmax; details: mean of both orientations;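 also: natural log of median RNA to DNA barcode read ratio; higher means stronger binding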
T5 chain: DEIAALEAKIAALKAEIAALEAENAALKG

4H3939-AA = target: T6, 4H3939-AA; assay: two-hybrid library CCmax; details: mean of both orientations;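 also: natural log of median RNA to DNA barcode read ratio; higher means stronger binding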
T6 chain: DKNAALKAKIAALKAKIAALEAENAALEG

4H341-AA = target: T7, 4H341-AA; assay: two-hybrid library CCmax; details: mean of both orientations
T7 chain: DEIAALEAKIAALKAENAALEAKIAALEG

4H3595-AA = target: T8, 4H3595-AA; assay: two-hybrid library CCmax
T8 chain: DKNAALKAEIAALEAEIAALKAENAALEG

4H3915-AA = target: T9, 4H3915-AA; assay: two-hybrid library CCmax; details: mean of both orientations
T9 chain: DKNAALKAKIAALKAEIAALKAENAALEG

4H2961-AA = target: T10, 4H2961-AA; assay: two-hybrid library CCmax
T10 chain: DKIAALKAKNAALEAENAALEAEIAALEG

4H432-AA = target: T11, 4H432-AA; assay: two-hybrid library CCmax; details: mean of both orientations
T11 chain: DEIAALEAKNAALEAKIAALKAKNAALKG

4H3414-AA = target: T12, 4H3414-AA; assay: two-hybrid library CCmax; details: mean of both orientations
T12 chain: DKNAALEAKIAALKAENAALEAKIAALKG

4H464-AA = target: T13, 4H464-AA; assay: two-hybrid library CCmax; details: mean of both orientations
T13 chain: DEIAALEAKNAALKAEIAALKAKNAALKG

4H3974-AA = target: T14, 4H3974-AA; assay: two-hybrid library CCmax; details: mean of both orientations
T14 chain: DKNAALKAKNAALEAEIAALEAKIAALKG

4H3449-AA = target: T15, 4H3449-AA; assay: two-hybrid library CCmax; details: mean of both orientations
T15 chain: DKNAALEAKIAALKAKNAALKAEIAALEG

4H3094-AA = target: T16, 4H3094-AA; assay: two-hybrid library CCmax; details: mean of both orientations
T16 chain: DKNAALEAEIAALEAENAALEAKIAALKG

4H3969-AA = target: T17, 4H3969-AA; assay: two-hybrid library CCmax; details: mean of both orientations
T17 chain: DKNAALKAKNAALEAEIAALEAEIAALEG

4H3049-AA = target: T18, 4H3049-AA; assay: two-hybrid library CCmax; details: mean of both orientations
T18 chain: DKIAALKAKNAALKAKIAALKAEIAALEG

4H63-AA = target: T19, 4H63-AA; assay: two-hybrid library CCmax
T19 chain: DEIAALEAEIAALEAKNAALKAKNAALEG

4H446-AA = target: T20, 4H446-AA; assay: two-hybrid library CCmax; details: mean of both orientations
T20 chain: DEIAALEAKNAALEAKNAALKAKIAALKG

4H483-AA = target: T21, 4H483-AA; assay: two-hybrid library CCmax; details: mean of both orientations
T21 chain: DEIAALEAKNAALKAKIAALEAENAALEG

4H3619-AA = target: T22, 4H3619-AA; assay: two-hybrid library CCmax; details: mean of both orientations
T22 chain: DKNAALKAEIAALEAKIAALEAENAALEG

4H3629-AA = target: T23, 4H3629-AA; assay: two-hybrid library CCmax
T23 chain: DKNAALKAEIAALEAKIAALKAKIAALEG

P9 = target: T24, P9; assay: two-hybrid library CC1; details: mean of both orientations
T24 chain: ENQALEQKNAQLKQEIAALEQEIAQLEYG

P8mS = target: T25, P8mS; assay: two-hybrid library CC1
T25 chain: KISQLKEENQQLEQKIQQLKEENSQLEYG

## DKIAALKAKNAALEAENAALEAEIAALEG [4H2961-AA]
4H380-AA
  interaction score: -1.56
4H3129-AA; mean of both orientations
  interaction score: -1.5
4H3782-AA
  interaction score: -1.44
4H3777-AA
  interaction score: -1.97
4H324-AA
  interaction score: -1.69
4H3939-AA
  interaction score: -1.84
4H341-AA
  interaction score: -0.961
4H3595-AA
  interaction score: -1.7
4H3915-AA
  interaction score: -1.91
4H2961-AA
  interaction score: -1.84
4H432-AA
  interaction score: -0.0165
4H3414-AA
  interaction score: -1.46
4H464-AA
  interaction score: -0.618
4H3974-AA
  interaction score: -1.82
4H3449-AA
  interaction score: -1.67
4H3094-AA
  interaction score: -1.08
4H3969-AA
  interaction score: -1.8
4H3049-AA
  interaction score: 1.02
4H63-AA
  interaction score: -1.2
4H446-AA
  interaction score: 1.97
4H483-AA
  interaction score: -1.35
4H3619-AA
  interaction score: -1.98
4H3629-AA
  interaction score: -1.26

## DKNAALEAEIAALEAKNAALKAEIAALEG [4H3129-AA]
4H380-AA
  interaction score: -1.83
4H3129-AA
  interaction score: -1.5
4H3782-AA
  interaction score: -1.55
4H3939-AA
  interaction score: -1.82
4H341-AA
  interaction score: 2.19
4H3595-AA; mean of both orientations
  interaction score: -1.39
4H3414-AA
  interaction score: 2.24
4H464-AA
  interaction score: -1.78
4H3969-AA
  interaction score: -1.84
4H63-AA; mean of both orientations
  interaction score: -2.14
4H446-AA
  interaction score: -2.05
4H483-AA
  interaction score: -2.19
4H3629-AA; mean of both orientations
  interaction score: -0.839

## KISQLKEENQQLEQKIQQLKEENSQLEYG [P8mS]
P9
  interaction score: -2.35
P8mS
  interaction score: -3.02
